Data as given in patent US20130136748A1 (Ablynx, published 2013).
Values belong to the binder of their own block, whether it stands above or below them.

Experiments:
human HER2 [1] = molecular target: T1, human HER2 (human, UniProt P04626 23-1255); assay: FACS CHO-HER2, 222 nM
T1 construct: also called hHER2

human HER2 [2] = molecular target: T1, human HER2; assay: FACS CHO-HER2, 2000 nM
human HER4 [3] = molecular target: T2, human HER4 (human, UniProt Q15303 26-1308); assay: FACS CHO-HER4, 2000 nM
human HER2 [4] = molecular target: T1, human HER2; assay: FACS, CHO-HER2
human HER2 [5] = molecular target: T1, human HER2; assay: FACS CHO-HER2, 667 nM
hHER3 full length [6] = molecular target: T3, hHER3 full length (human, UniProt P21860 20-1342); assay: FACS, 400 nM, competitor 17C08-biotin
T3 construct: On transfected CHO, CHO HER2/HER3, CHO EGFR/HER3 or CHO Flp-In cells; endogenous HER3 of MCF-7 and MDA-MB468 cells in the signalling assays; also called human HER3

human HER4 [7] = molecular target: T2, human HER4; assay: FACS, CHO-HER4
[8] = molecular target: T4, human HER3-Fc (R&D Systems, 348-RB) (human, UniProt P21860 20-643); assay: SPR, HER3-Fc captured by anti-Fc
T4 construct: Bought; also called hHER3-Fc; Fc-HER3; Fc part of the bought chimera not given, not described

human HER1 [9] = molecular target: T5, human HER1 (human, UniProt P00533 25-1210); assay: FACS CHO-HER1, 2000 nM
T5 construct: also called EGFR; ErbB1

human HER4 [10] = molecular target: T2, human HER4; assay: FACS CHO-HER4, 667 nM
hHER3 full length [11] = molecular target: T3, hHER3 full length; assay: FACS, 400 nM, competitor 04F10-biotin
hHER3 full length [12] = molecular target: T3, hHER3 full length; assay: FACS, 400 nM, competitor 21B02-biotin
hHER3 full length [13] = molecular target: T3, hHER3 full length; assay: cell-based or functional assay
human HER1 [14] = molecular target: T5, human HER1; assay: FACS CHO-HER1, 667 nM
hHER3 full length [15] = molecular target: T3, hHER3 full length; assay: FACS, 400 nM, competitor 04C07-biotin
hHER3 full length [16] = molecular target: T3, hHER3 full length; assay: FACS, 400 nM, competitor 23F05-biotin
human HER1 [17] = molecular target: T5, human HER1; assay: FACS CHO-HER1, 222 nM
[18] = molecular target: T6, hHER3 ECD (human HER3 extracellular domain) (human, UniProt P21860 20-643); assay: ELISA, coated hHER3-ECD
T6 construct: also called recombinant HER3-ECD

hHER3 full length [19] = molecular target: T3, hHER3 full length; assay: FACS, 400 nM, competitor 18E08-biotin
human HER4 [20] = molecular target: T2, human HER4; assay: FACS CHO-HER4, 222 nM
[21] = molecular target: T7, cHER3ECD (Maccaca fascicularis HER3 extracellular domain) (Macaca fascicularis, UniProt P21860 20-643 (human entry)); assay: ELISA, coated cHER3-ECD
T7 construct: also called cyno HER3ECD; cyno HER3-ECD
T7 chain: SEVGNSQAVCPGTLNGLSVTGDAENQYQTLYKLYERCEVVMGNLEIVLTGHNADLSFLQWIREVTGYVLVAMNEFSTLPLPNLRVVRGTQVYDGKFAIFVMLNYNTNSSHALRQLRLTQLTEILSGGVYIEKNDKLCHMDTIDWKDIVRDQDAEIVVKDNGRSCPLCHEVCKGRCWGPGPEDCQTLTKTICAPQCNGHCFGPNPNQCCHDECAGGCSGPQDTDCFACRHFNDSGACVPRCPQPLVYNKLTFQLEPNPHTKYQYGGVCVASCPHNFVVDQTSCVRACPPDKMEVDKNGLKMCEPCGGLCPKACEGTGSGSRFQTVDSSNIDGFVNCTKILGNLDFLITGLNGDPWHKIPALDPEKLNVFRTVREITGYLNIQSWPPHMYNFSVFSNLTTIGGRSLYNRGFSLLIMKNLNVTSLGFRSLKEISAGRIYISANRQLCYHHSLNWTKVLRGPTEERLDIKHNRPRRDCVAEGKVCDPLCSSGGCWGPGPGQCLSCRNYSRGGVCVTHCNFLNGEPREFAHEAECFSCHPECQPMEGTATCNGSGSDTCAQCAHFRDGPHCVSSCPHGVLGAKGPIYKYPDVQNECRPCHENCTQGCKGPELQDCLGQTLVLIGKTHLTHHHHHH

hHER3 full length [22] = molecular target: T3, hHER3 full length; assay: cell-based or functional assay; remark: listed apart in the source
human HER1 [23] = molecular target: T5, human HER1; assay: FACS, CHO-HER1

T2 sequence (Q15303 26-1308 limits assumed): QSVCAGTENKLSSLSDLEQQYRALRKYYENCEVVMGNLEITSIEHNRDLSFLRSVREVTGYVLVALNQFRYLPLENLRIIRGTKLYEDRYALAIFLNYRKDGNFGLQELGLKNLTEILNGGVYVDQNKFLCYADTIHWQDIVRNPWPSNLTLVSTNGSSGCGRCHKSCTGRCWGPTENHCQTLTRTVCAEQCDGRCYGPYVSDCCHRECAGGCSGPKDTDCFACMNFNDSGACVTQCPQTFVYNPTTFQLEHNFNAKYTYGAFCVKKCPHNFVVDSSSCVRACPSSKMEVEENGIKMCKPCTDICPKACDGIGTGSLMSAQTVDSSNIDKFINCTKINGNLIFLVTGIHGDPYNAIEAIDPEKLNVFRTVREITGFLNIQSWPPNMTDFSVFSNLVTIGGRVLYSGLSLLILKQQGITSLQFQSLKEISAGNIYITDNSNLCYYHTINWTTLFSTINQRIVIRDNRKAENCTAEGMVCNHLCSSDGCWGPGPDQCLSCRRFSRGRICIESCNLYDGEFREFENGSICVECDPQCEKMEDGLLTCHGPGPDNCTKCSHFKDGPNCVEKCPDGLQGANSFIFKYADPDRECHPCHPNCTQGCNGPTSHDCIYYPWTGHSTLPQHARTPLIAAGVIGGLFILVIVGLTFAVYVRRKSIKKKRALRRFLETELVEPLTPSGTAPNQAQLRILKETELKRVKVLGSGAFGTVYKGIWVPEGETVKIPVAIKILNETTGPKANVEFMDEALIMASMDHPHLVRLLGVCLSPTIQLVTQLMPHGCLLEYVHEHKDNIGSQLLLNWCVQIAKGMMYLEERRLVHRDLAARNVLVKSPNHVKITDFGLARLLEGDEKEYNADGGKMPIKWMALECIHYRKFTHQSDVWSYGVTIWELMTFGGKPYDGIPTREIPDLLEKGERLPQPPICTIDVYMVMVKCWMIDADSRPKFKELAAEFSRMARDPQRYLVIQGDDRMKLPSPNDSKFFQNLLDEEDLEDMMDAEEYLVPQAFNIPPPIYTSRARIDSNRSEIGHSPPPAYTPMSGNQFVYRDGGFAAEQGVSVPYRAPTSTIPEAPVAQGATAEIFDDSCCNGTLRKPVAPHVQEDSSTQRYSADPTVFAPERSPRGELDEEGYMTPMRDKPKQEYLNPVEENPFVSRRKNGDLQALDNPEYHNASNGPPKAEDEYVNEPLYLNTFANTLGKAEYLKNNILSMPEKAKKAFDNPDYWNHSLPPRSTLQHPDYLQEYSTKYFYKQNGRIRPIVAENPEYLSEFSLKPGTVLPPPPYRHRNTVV

MCF (human HER2 [1]): 84 | MCF (human HER2 [2]): 154 | MCF (human HER4 [3]): 105 | binding result (human HER2 [4]): no binding (tested: 2000 nM) | MCF (human HER2 [5]): 79 | % competition (hHER3 full length [6]): 15% | binding result (human HER4 [7]): no binding (tested: 2000 nM) | Kd [8]: 0.22 nM | kon [8]: 1.2e+06 M⁻¹ s⁻¹ | MCF (human HER1 [9]): 72 | MCF (human HER4 [10]): 103 | % competition (hHER3 full length [11]): 0% | % competition (hHER3 full length [12]): 2% | IC50, HRG1-β1 induced pHER3, MCF-7 (hHER3 full length [13]): 1.07e-09 M | IC50, HRG1-β1 induced pHER3, MDA-MB468 (hHER3 full length [13]): 6.68e-09 M | MCF (human HER1 [14]): 92 | % competition (hHER3 full length [15]): 100% | % competition (hHER3 full length [16]): 0% | MCF (human HER1 [17]): 75 | EC50 [18]: 0.86 nM | % competition (hHER3 full length [19]): 26% | MCF (human HER4 [20]): 96 | EC50 [21]: 0.93 nM | IC50, HRG1-β1 induced pAkt, MCF-7 (hHER3 full length [22]): 1.09e-08 M | IC50, HRG1-β1 induced pERK1/2, MCF-7 (hHER3 full length [22]): 2.79e-08 M | binding result (human HER1 [23]): no binding (tested: 2000 nM)
B1: 04C07 (VHH)
VHH: EVQLVESGGGLVQAGGSLRLSCAASGFTFSSYPMSWVRQAPGKGPAWVSTVSPGGITTSYADSVKGRFTISRDNAKNTLYLQMNSLKPEDTAVYYCLRDLNNRGQGTQVTVSS
notes: also called HER3MS04C07; HER3MS004C07

MCF (human HER2 [1]): 160 | MCF (human HER2 [2]): 1220 | MCF (human HER4 [3]): 254 | binding result (human HER2 [4]): no binding (tested: 2000 nM) | MCF (human HER2 [5]): 418 | % competition (hHER3 full length [6]): 97% | binding result (human HER4 [7]): no binding (tested: 2000 nM) | MCF (human HER1 [9]): 58 | MCF (human HER4 [10]): 91 | % competition (hHER3 full length [11]): 77% | % competition (hHER3 full length [12]): 16% | IC50, HRG1-β1 induced pHER3, MCF-7 (hHER3 full length [13]): 8.98e-08 M | IC50, HRG1-β1 induced pHER3, MDA-MB468 (hHER3 full length [13]): 5.38e-08 M | MCF (human HER1 [14]): 47 | % competition (hHER3 full length [15]): 3% | % competition (hHER3 full length [16]): 17% | MCF (human HER1 [17]): 62 | EC50 [18]: 0.62 nM | % competition (hHER3 full length [19]): 98% | MCF (human HER4 [20]): 210 | EC50 [21]: 0.59 nM | IC50, HRG1-β1 induced pAkt, MCF-7 (hHER3 full length [22]): 7.24e-07 M | inhibition of HRG1-β1 induced pERK1/2, MCF-7 (hHER3 full length [22]): < 50 % inhibition | binding result (human HER1 [23]): no binding (tested: 2000 nM)
B2: 17C08 (VHH)
VHH: EVQLVESGGGLMQAGDSLRLSCAASGRAFSSYALGWFRRAPGKERECVAATDRLGDNTYFPDSVKGRFTISRDNAKNTLYLQMNNLKPEDTAVYYCAAGAVRYGVSTSPMNYNYWGQGTQVTVSS
notes: also called 17C8

MCF (human HER2 [1]): 109 | MCF (human HER2 [2]): 65 | MCF (human HER4 [3]): 124 | binding result (human HER2 [4]): no binding (tested: 2000 nM) | MCF (human HER2 [5]): 117 | % competition (hHER3 full length [6]): 74% | binding result (human HER4 [7]): no binding (tested: 2000 nM) | Kd [8]: 10 nM | kon [8]: 26000 M⁻¹ s⁻¹ | MCF (human HER1 [9]): 97 | MCF (human HER4 [10]): 56 | % competition (hHER3 full length [11]): 0% | % competition (hHER3 full length [12]): 0% | IC50, HRG1-β1 induced pHER3, MCF-7 (hHER3 full length [13]): 1.03e-08 M | IC50, HRG1-β1 induced pHER3, MDA-MB468 (hHER3 full length [13]): 7.03e-09 M | MCF (human HER1 [14]): 87 | % competition (hHER3 full length [15]): 0% | % competition (hHER3 full length [16]): 0% | MCF (human HER1 [17]): 101 | EC50 [18]: 0.72 nM | % competition (hHER3 full length [19]): 97% | MCF (human HER4 [20]): 57 | EC50 [21]: 0.64 nM | IC50, HRG1-β1 induced pAkt, MCF-7 (hHER3 full length [22]): 1.38e-07 M | inhibition of HRG1-β1 induced pERK1/2, MCF-7 (hHER3 full length [22]): < 50 % inhibition | binding result (human HER1 [23]): no binding (tested: 2000 nM)
B3: 18G11 (VHH)
VHH: EVQLVESGGGLVQPGGSLRLSCAASGTLFKINAMGWYRQAPGKRRELVALITSSDTTDYAESVEGRFTISRDNTWNAVYLQMNSLKPEDTAVYYCHSDHYSMGVPEKRVIMYGQGTQVTVSS
notes: c-myc, His6-tagged form as expressed; also called HER3MS18G11; HER3MS018G11
